We go through seven molecules from patent publication US20240262923A1 (Sanofi, published 2024).

Read-outs that look alike come from different tables or passages of the source.

Test [1] has as its target human CD40 (human, UniProt P25942 21-193). Briefly: binding assay (FIG. 2), bivalent Fab-like.
The target of test [2] is T1, human OX40 (human, UniProt P43489 29-216).
T1 construct: also called hOX40
T1 sequence (looked up): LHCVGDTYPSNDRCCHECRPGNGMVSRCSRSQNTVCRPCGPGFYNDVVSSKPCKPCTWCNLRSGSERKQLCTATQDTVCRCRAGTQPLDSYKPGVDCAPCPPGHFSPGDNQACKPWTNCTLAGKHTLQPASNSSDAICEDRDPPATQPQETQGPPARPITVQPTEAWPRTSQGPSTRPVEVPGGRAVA
Briefly: binding assay (FIG. 2), bivalent Fab-like.

In test [3] the target is T2, human His-tagged 4-1BB recombinant protein (human, UniProt Q07011 24-186).
T2 construct: also called human 4-1BB; h4-1BB; not shown: His tag
The test is described as follows: binding assay (FIG. 2), bivalent monoparatopic Fab-like.

Test [4] addresses T3, PD-1 in the PD-1/PD-L1 interaction assay (human, UniProt Q15116 25-167, limits assumed). Briefly: PD-1/PD-L1 interaction assay, Relative EC50, IgG1 LALA.
For test [5], the target named is T4, cynomolgus monkey 4-1BB expressed on 300.19 pre-B cells (cynomolgus monkey, UniProt A9YYE7 24-254).
T4 construct: whole, on cells; also called cy4-1BB; Pre-B cy4-1BB
Briefly: flow cytometry on transfected 300.19 pre-B cells. (In flow cytometry, cells or beads pass a laser one at a time.)

Test [6] deals with T5, human PD-1 expressed on cells (300.19 pre-B cells, PD-1 NFAT-luc2 Jurkat cells, primary T-cells) (human, UniProt Q15116 25-288).
T5 construct: GenBank NP 005009.2 printed; also called hPD-1; Pre-B hPD-1
T5 sequence (Q15116 25-288 limits assumed): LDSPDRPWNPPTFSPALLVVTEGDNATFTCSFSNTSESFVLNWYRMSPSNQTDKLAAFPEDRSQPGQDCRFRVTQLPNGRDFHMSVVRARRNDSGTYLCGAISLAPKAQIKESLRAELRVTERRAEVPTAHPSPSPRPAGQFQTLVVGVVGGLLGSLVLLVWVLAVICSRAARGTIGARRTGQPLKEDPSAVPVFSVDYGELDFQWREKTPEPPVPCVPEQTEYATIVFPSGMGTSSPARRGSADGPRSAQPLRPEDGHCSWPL
Briefly: flow cytometry on transfected 300.19 pre-B cells.

The target in test [7] is T6, cynomolgus monkey PD-1 expressed on 300.19 pre-B cells (cynomolgus monkey, UniProt B0LAJ3 25-288).
T6 construct: also called cyPD-1; Pre-B cyPD-1
T6 sequence (B0LAJ3 entry or part of it limits assumed): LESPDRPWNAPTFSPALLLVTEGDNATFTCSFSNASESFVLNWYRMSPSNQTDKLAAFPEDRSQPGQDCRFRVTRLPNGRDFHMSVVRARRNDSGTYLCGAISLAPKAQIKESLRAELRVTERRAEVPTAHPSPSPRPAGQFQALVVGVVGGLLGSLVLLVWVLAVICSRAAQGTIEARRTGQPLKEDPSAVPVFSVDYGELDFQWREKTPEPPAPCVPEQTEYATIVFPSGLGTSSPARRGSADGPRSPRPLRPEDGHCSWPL
Briefly: flow cytometry on transfected 300.19 pre-B cells.

In test [8] the target is T7, human 4-1BB expressed on cells (300.19 pre-B cells, Jurkat NF-κB-luc2P cells, primary T-cells) (human, UniProt Q07011 24-255).
T7 construct: also called h4-1BB; Pre-B h4-1BB
T7 sequence (Q07011 24-255 limits assumed): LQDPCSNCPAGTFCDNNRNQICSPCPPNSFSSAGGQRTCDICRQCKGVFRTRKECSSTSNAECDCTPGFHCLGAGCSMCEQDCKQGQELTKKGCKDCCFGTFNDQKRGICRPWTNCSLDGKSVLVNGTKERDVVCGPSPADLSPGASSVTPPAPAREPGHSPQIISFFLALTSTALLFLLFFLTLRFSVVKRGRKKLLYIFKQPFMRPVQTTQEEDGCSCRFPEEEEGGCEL
The test is described as follows: flow cytometry on transfected 300.19 pre-B cells.

In test [9] the target is T5, human PD-1 expressed on cells (300.19 …). The test is described as follows: flow cytometry on Jurkat reporter cells.
Test [10] shares this target. The test is described as follows: flow cytometry on anti-CD3-stimulated primary human T-cells.
Test [11] has the same target. Briefly: cell-based or functional assay.
The target of test [12] is T3, PD-1 in the PD-1/PD-L1 interaction assay. Briefly: PD-1/PD-L1 interaction assay, Relative EC50, Fab.
For test [13] the target is unchanged. The test is described as follows: PD-1/PD-L1 interaction assay, EC50 of Fab against IgG1 LALA.
Test [14] addresses T2, human His-tagged 4-1BB recombinant …. The test is described as follows: ELISA (FIG. 7A), bivalent monoparatopic Fab-like. (In general: ELISA stands for enzyme-linked immunosorbent assay.)
The target is the same in test [15]. Briefly: ELISA binding on 4-1BB-his, bivalent monoparatopic Fab-like constructs.
Test [16] deals with T8, extracellular domain of human 4-1BB (amino acid residues 24-186 of SEQ ID NO: 13) (human, UniProt Q07011 24-186).
T8 construct: Used for X-ray crystallography
The test is described as follows: X-ray crystallography of the complex.

In test [17] the target is T6, cynomolgus monkey PD-1 expressed on …. Briefly: flow cytometry on 300.19 pre-B cells, cyPD-1 against hPD-1.
Test [18] has as its target T4, cynomolgus monkey 4-1BB expressed on …. Briefly: flow cytometry on 300.19 pre-B cells, cy4-1BB against h4-1BB.
The target in test [19] is T9, cynomolgus monkey 4-1BB (SPR analyte) (cynomolgus monkey, UniProt A9YYE7 24-186).
T9 construct: also called cy4-1BB
T9 sequence: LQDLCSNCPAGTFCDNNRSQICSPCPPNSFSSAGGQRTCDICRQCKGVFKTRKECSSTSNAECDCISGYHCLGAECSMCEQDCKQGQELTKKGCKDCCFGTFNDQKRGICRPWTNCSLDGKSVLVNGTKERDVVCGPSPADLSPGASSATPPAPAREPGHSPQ
Briefly: SPR, KD on cy4-1BB against KD on h4-1BB.

Test [20] deals with T5, human PD-1 expressed on cells (300.19 …). Briefly: flow cytometry on PD-1+ Jurkat T-cells.
The target in test [21] is T4, cynomolgus monkey 4-1BB expressed on …. The test is described as follows: flow cytometry on 300.19 pre-B cells.
Test [22] shares this target. Briefly: flow cytometry on 300.19 pre-B cells, cy4-1BB.
Test [23] has as its target T10, human PD-1 (SPR analyte) (human, UniProt Q15116 25-167, limits assumed).
T10 construct: Soluble analyte in SPR; also called hPD-1
Briefly: SPR (Biacore 8K), binder captured on anti-Fc chip, target as analyte, 1:1 model.

Test [24] has as its target T5, human PD-1 expressed on cells (300.19 …). The test is described as follows: cell-based or functional assay. The source holds these as a separate data set.
In test [25] the target is T11, cynomolgus monkey PD-1 (SPR analyte) (cynomolgus monkey, UniProt B0LAJ3 25-170).
T11 construct: also called cyPD-1
T11 sequence (B0LAJ3 entry or part of it limits assumed): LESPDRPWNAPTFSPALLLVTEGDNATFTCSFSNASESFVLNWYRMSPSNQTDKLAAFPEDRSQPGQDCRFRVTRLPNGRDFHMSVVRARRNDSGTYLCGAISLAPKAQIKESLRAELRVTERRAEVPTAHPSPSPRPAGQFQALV
The test is described as follows: SPR, KD on cyPD-1 against KD on hPD-1. Background: Surface plasmon resonance follows binding to a sensor surface in real time, without labels.

For test [26], the target named is T11, cynomolgus monkey PD-1 (SPR analyte). The test is described as follows: SPR (Biacore 8K), binder captured on anti-Fc chip, target as analyte, 1:1 model.
Test [27] concerns the target T10, human PD-1 (SPR analyte). Described as above. This is another data set of the same source.
Test [28] addresses T5, human PD-1 expressed on cells (300.19 …). The test is described as follows: flow cytometry on 300.19 pre-B cells.
Test [29] has as its target T6, cynomolgus monkey PD-1 expressed on …. Briefly: flow cytometry on 300.19 pre-B cells.
Test [30] deals with T9, cynomolgus monkey 4-1BB (SPR analyte). The test is described as follows: SPR (Biacore 8K), binder captured on anti-Fc chip, target as analyte, 1:1 model.

T3 sequence (Q15116 25-167 limits assumed): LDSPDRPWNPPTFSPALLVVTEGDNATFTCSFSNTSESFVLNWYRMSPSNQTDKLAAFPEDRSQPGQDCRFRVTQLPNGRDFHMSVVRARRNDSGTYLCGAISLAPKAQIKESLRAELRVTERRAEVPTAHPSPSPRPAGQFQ
T10 sequence (Q15116 25-167 limits assumed): as above
human CD40, sequence (P25942 21-193 limits assumed): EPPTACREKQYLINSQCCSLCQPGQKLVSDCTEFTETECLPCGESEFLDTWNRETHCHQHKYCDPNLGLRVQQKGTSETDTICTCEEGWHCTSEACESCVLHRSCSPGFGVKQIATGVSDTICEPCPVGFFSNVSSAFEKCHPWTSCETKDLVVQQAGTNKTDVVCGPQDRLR

B1: anti-4-1BB VHH Clone #2, bivalent monoparatopic Fab-like construct (other)
chain 1: QVQLQESGGGLVQPGGSLRLSCAASGGLFSINTGGWYRQAPGKQRELVATITHDDRTNYAESVKGRFTLSRDNAKNTVYLQMNSLKPEDTAVYYCRLGSAAIRGYWGQGTQVTVSS
chain 2: QVQLQESGGGLVQPGGSLRLSCAASGGLFSINTGGWYRQAPGKQRELVATITHDDRTNYAESVKGRFTLSRDNAKNTVYLQMNSLKPEDTAVYYCRLGSAAIRGYWGQGTQVTVSS
notes: not shown: human CL (lambda) constant domain, tag if any; human IgG1 CH1 domain, HA and 6-His tags
As for B1, the binding result in [1] is recorded as “no binding”; in test [2] it was “no binding”; in test [3], “binds”.

B2: anti-PD-1 antibody clone T5 (IgG1 LALA) (antibody, V domains shown)
VH: QLQLQESGPGLVKPSETLSLTCTVSGGSISTSSYFWGWIRQPPGKGLEWIGSIYRSGSTYYNPSLKSRVTISVDTSKNQFSLKLSSVTAADTAVYYCARGITGDPGDYWGQGTLVTVSS
VL: EIVLTQSPATLSLSPGERATLSCGASQSVSINFLAWYQQKPGLAPRLLIYEASSRATGIPDRFSGSGSGTDFTLTISRLEPEDFAVYYCQQYGSSPYTFGQGTKLEIK
For orientation: EC50 means the midpoint of the concentration-response curve. In the case of B2, the EC50 in test [4] is 0.278 nM; in test [6] it was 0.284 nM; in test [7], 0.417 nM; in test [9], 0.278 nM; in [10] it was 0.205 nM. Besides, the binding result in [5] and in test [8] was “no binding” each time. In addition, the results for the Emax in test [6], in test [7] and in test [9] were 6240 MFI, 17700 MFI and 280 MFI, respectively. In addition, the “IC50 (nM) PD-1 reporter assay” value in test [11] was determined as 2.8 nM.

B3: anti-PD-1 antibody clone T5, Fab format (Fab, V domains shown)
VH: QLQLQESGPGLVKPSETLSLTCTVSGGSISTSSYFWGWIRQPPGKGLEWIGSIYRSGSTYYNPSLKSRVTISVDTSKNQFSLKLSSVTAADTAVYYCARGITGDPGDYWGQGTLVTVSS
VL: EIVLTQSPATLSLSPGERATLSCGASQSVSINFLAWYQQKPGLAPRLLIYEASSRATGIPDRFSGSGSGTDFTLTISRLEPEDFAVYYCQQYGSSPYTFGQGTKLEIK
With B3, in test [12], the response was half-maximal at 48.8 nM (EC50). Also, in test [13], the “Ratio Fab:IgG1” value is 176 fold.

B4: anti-4-1BB clone #5c VHH, bivalent monoparatopic Fab-like construct (other)
chain 1: QVQLQESGGGLVQAGGSLRLSCAASGDTFSSYAMGWFRQAPGERLEWVASINPSGGSQSYHPSVKDRFTISRDNGKNILFLQLDKLNPEDTAVYVCARGTRYKIFASGQGTQVTVSS
chain 2: QVQLQESGGGLVQAGGSLRLSCAASGDTFSSYAMGWFRQAPGERLEWVASINPSGGSQSYHPSVKDRFTISRDNGKNILFLQLDKLNPEDTAVYVCARGTRYKIFASGQGTQVTVSS
notes: as for B1
As to B4, the binding result in [14] is reported as “binds”.

B5: anti-4-1BB VHH Clone #5, bivalent monoparatopic Fab-like construct (other)
chain 1: QVQLQESGGGLVQPGGSLRLSCAASGFTFSDHTMTWVRQAPGKGLEWVSSISSGGSRIIYADSVKGRFTISRDNAKNTLYLQMNNLRPEDTAVYFCARGTRYKMSTSGPGTQVTVSS
chain 2: QVQLQESGGGLVQPGGSLRLSCAASGFTFSDHTMTWVRQAPGKGLEWVSSISSGGSRIIYADSVKGRFTISRDNAKNTLYLQMNNLRPEDTAVYFCARGTRYKMSTSGPGTQVTVSS
notes: as for B1
As a reminder, the EC50 (read off the curve) is the concentration needed to bring the measured effect to its halfway point. On to B5, for which the binding result in test [1] and in test [2] was “no binding” each time. Besides, the “EC50 (read off the curve)” value in test [15] was ~3 nM.

B6: anti-4-1BB clone #5 VHH (VHH)
VHH: QVQLQESGGGLVQPGGSLRLSCAASGFTFSDHTMTWVRQAPGKGLEWVSSISSGGSRIIYADSVKGRFTISRDNAKNTLYLQMNNLRPEDTAVYFCARGTRYKMSTSGPGTQVTVSS
On to B6, for which the binding result in [16] is listed as “binds”.

B7: Optimized Construct #3 (bispecific antibody)
heavy: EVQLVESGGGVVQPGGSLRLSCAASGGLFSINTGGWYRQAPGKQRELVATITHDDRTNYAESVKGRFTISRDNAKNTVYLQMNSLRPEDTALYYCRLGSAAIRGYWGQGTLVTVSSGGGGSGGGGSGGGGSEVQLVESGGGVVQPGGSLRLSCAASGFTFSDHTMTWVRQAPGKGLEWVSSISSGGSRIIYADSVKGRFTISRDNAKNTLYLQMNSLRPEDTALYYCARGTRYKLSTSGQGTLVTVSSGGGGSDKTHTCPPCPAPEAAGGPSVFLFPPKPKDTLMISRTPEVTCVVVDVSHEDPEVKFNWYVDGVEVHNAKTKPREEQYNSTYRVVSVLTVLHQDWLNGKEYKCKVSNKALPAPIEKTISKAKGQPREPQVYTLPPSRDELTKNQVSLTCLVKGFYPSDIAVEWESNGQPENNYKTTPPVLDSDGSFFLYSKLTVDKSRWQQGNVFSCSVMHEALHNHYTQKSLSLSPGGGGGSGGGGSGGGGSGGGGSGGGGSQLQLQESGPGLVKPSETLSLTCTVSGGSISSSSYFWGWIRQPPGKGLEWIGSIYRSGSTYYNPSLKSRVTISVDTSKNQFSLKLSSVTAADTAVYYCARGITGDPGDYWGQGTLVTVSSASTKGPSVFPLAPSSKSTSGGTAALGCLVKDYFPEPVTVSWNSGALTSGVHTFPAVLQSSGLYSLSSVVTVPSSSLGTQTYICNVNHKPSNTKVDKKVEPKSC
light: EIVLTQSPATLSLSPGERATLSCGASQSVPINFLAWYQQKPGLAPRLLIYEASSRHTGIPDRFSGSGSGTDFTLTISRLEPEDFAVYYCGQYGSSPYTFGQGTKLEIKRTVAAPSVFIFPPSDEQLKSGTASVVCLLNNFYPREAKVQWKVDNALQSGNSQESVTEQDSKDSTYSLSSTLTLSKADYEKHKVYACEVTHQGLSSPVTKSFNRGEC
notes: also called Optimized Construct #3 (unmasked); naked
As a reminder, the Kd is the concentration at which binding is half-saturated. For the molecule B7, the entries for the “Ratio EC50 cy/h” value in test [17] and in [18] were 1.04 fold and 0.3 fold, respectively. Besides, the figures for the “Ratio KD cyno/human” value in test [19] and in [25] were 1.9 fold and 2 fold, respectively. Further, the EC50 in test [20] was 0.5 nM; in [21], 0.91 nM; in test [28], 1.4 nM; in [29], 1.45 nM. Moreover, the “masking efficacy (masked EC50/naked EC50)” value in [22] is 1 fold. Besides, the Kd in test [23] was 4.54 nM; in [26] it was 14.9 nM; in test [27], 7.29 nM; in [30], 21.1 nM. Besides, in test [24], the “EC50 value (nM), PD-1 reporter assay” value came out at 1.39 nM.
